Laboratory results: the supplement of paper PMC9732359
± gives the uncertainty stated by the source.

Assay: protein stability index of a GFP-peptide fusion (yeast GPS) (PSI 1-4); higher = more stable; sorted into four equal gates, so the index is relative within each strain
Outline: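 Sequencing reads from sorted gates were used to score each peptide. The library consisted of tiled 17-residue yeast protein peptides fused downstream of GFP on a Cherry-expressing plasmid, pooled and carried in yeast. Mid-log cultures in leucine-free medium were split into four equal gates by GFP/Cherry ratio, and each gate's plasmids were PCR-amplified and Illumina-sequenced. The protein stability index adds up, over all gates, the read frequency multiplied by the gate number.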

Sequence | protein stability index (doa10∆) | protein stability index (pdr5∆) | protein stability index (san1∆) | protein stability index (ubr1∆)
IECFKPGDIVRAQVLSL [CSL4] | 2.25 ± 0.15 | 2.04 ± 0.17 | 2.04 ± 0.2 | 2.39 ± 0.16
IEDPNLSSNITFDGKPT [YMR153W/NUP53] | 3.02 ± 0.069 | 3.06 ± 0.056 | 3.12 ± 0.043 | 3.17 ± 0.05
IEEKLSSFSKKTLTEEV [YIL149C/MLP2] | 2.92 ± 0.054 | 3.07 ± 0.052 | 3.03 ± 0.052 | 3 ± 0.048
IEEQGDALQDVEESSEK [DPB4] | 3.02 ± 0.12 | 3.46 ± 0.079 | 3.13 ± 0.059 | 3.41 ± 0.075
IEIEDEKVSSVLSALEG [RPP2A] | 2.88 ± 0.037 | 2.29 ± 0.034 | 2.81 ± 0.029 | 2.449 ± 0.024
IEITNSNDLCSQIFDQL [SRB8] | 2.67 ± 0.057 | 2.96 ± 0.074 | 2.69 ± 0.059 | 2.74 ± 0.043
IEKCLKASELKLALGIA [RPN2] | 2.75 ± 0.1 | 3.1 ± 0.13 | 3 ± 0.098 | 2.69 ± 0.24
IELKTDWVRFLALALGI [RPN1] | 1.38 ± 0.13 | 1.37 ± 0.077 | 1.41 ± 0.12 | 1.13 ± 0.067
IEPQVINYLALNAANYN [ECM29] | 3.37 ± 0.13 | 2.63 ± 0.12 | 2.15 ± 0.24 | 2.33 ± 0.078
IEQSITKNIPITHRDLH [SSN8] | 2.37 ± 0.047 | 2.92 ± 0.041 | 2.53 ± 0.046 | 2.78 ± 0.036
IESNKLAGVLYESRNVA [RRP6] | 2.93 ± 0.062 | 3.11 ± 0.074 | 3.07 ± 0.1 | 3.08 ± 0.062
IESQNLDLIPHSSSVFK [SRB4] | 2.46 ± 0.059 | 2.9 ± 0.053 | 2.55 ± 0.067 | 2.73 ± 0.038
IETLDPALIRPGRIDRK [RPT2] | 2.53 ± 0.26 | 3.18 ± 0.19 | 2.88 ± 0.24 | 3.02 ± 0.2
IFERMIEKCLKASELKL [RPN2] | 2.17 ± 0.15 | 2.21 ± 0.099 | – | 1.85 ± 0.079
IFKDLVTVFLFMLILAL [COB] | 1.45 ± 0.04 | 1.19 ± 0.033 | 1.12 ± 0.067 | 1.17 ± 0.025
IFRGSLIGCIPYSKNAV [YDL088C/ASM4] | 2.18 ± 0.062 | 2.51 ± 0.09 | 2.14 ± 0.13 | 2.19 ± 0.068
IGGRRFSEGTSADREIQ [RPT4] | 2.51 ± 0.085 | 2.59 ± 0.088 | 1.98 ± 0.12 | 2.77 ± 0.19
IGKDTFVTRKSRKRAKK [PRP8] | 3.01 ± 0.092 | 2.84 ± 0.096 | 2.87 ± 0.078 | 3.25 ± 0.049
IGKMYDEYLGSHTDQPA [NNF1] | 3.37 ± 0.16 | 2.9 ± 0.17 | – | 3.28 ± 0.086
IGLVKCTQMTDEGLLNM [GRR1] | 3.01 ± 0.068 | 2.91 ± 0.066 | 2.81 ± 0.057 | 2.91 ± 0.043
IGVVSLTNGVTEHVRQN [RRP6] | 3.29 ± 0.14 | 3.42 ± 0.11 | 3.32 ± 0.099 | 3.33 ± 0.063
IHEIDERLAKVNEMNDQ [NNF1] | 1.37 ± 0.089 | 2.51 ± 0.14 | 1.63 ± 0.12 | 1.96 ± 0.061
IHLLHDDRGPVLESIVA [BRR2] | 2.48 ± 0.089 | 1.78 ± 0.06 | 3.24 ± 0.05 | 2.63 ± 0.11
IHYSWSFILYYRRALQS [YML103C/NUP188] | 1.48 ± 0.064 | 1.09 ± 0.042 | 1.26 ± 0.11 | 1.12 ± 0.082
IIDAKTRNEQTTIQTEK [MCD1] | 3.19 ± 0.093 | 3.23 ± 0.082 | 2.91 ± 0.17 | 3.01 ± 0.06
IIDEIKCIPKKGTVFQF [POP4] | 1.6 ± 0.13 | 1.56 ± 0.074 | 1.86 ± 0.28 | 1.3 ± 0.048
IIEKITDQILQLLKEDS [RRP45] | 2.35 ± 0.11 | 2.5 ± 0.11 | 2.26 ± 0.14 | 2.37 ± 0.13

Sequence | protein stability index (doa10∆) | protein stability index (pdr5∆) | protein stability index (san1∆) | protein stability index (ubr1∆)
IIFQQLLFWTDPRNLVN [YCG1] | 2.04 ± 0.082 | 2.35 ± 0.067 | 3.1 ± 0.059 | 2.13 ± 0.11
IILPLDNATLTELVDKA [SSN2] | 2.54 ± 0.11 | 3.16 ± 0.15 | 2.6 ± 0.099 | 1.95 ± 0.26
IIQLILWSIHPSRQFDH [SRB8] | 1.57 ± 0.047 | 1.47 ± 0.049 | 1.59 ± 0.087 | 1.54 ± 0.05
IIRPILGKVRFANYKLL [SRB4] | 1.44 ± 0.045 | 1.75 ± 0.043 | 1.14 ± 0.1 | 1.73 ± 0.057
IIRQLSELNEGNLSKRE [SRB8] | 3.18 ± 0.12 | 3.53 ± 0.11 | 3.4 ± 0.1 | 3.42 ± 0.27
IISRLNADFQKPWFATV [FAS1] | 2.27 ± 0.066 | 2.4 ± 0.063 | 2.1 ± 0.071 | 2.96 ± 0.069
IISTAIADSTHVKRITK [ECM29] | 2.94 ± 0.1 | 2.95 ± 0.092 | 2.6 ± 0.1 | 3.13 ± 0.078
IIVENSGTSGDEDVDVL [RPN2] | 3.3 ± 0.12 | 3.61 ± 0.095 | 3.5 ± 0.075 | 3.52 ± 0.095
IKCSQSSHLSDNDFIIN [POP5] | 2.96 ± 0.09 | 2.85 ± 0.059 | 2.66 ± 0.059 | 2.55 ± 0.041
IKEIINASKVISTPIIN [RPO31] | 3.08 ± 0.11 | 1.88 ± 0.17 | 1.03 ± 0.18 | 1.53 ± 0.25
IKIFELKLPADATTWRY [IRR1] | 2.03 ± 0.056 | 2.06 ± 0.049 | 2.26 ± 0.08 | 2.39 ± 0.046
IKKFAKLHMGTDDVRLA [RPL31A] | 1.7 ± 0.037 | 1.32 ± 0.042 | 1.24 ± 0.064 | 1.58 ± 0.037
IKKYASVVRVLVHTQIR [RPL3] | 1.87 ± 0.064 | 2.32 ± 0.074 | 1.62 ± 0.11 | 2.13 ± 0.044
IKLSLKDKTKNISAEII [SMC4] | 2.84 ± 0.082 | 3.09 ± 0.08 | 3.04 ± 0.066 | 3.11 ± 0.082
IKNISNRVGLTLDNIDD [ARP9] | 2.65 ± 0.24 | 3.03 ± 0.11 | 3.16 ± 0.091 | 3.32 ± 0.073
IKPKPLWSGKQILSVAI [RPO21] | 1.62 ± 0.056 | 1.53 ± 0.047 | 1.4 ± 0.073 | 1.62 ± 0.064
IKQQQQQQQQQNGQQPP [YML103C/NUP188] | 2.31 ± 0.036 | 2.63 ± 0.039 | 2.48 ± 0.04 | 2.39 ± 0.034
IKRMAIRNIVEAAAVRD [RPS26A] | 1.29 ± 0.069 | 1.68 ± 0.097 | 1.83 ± 0.16 | 1.93 ± 0.055
IKSGVAKLESLLENSVD [MTW1] | 3.29 ± 0.098 | 3.4 ± 0.091 | 3.32 ± 0.055 | 3.4 ± 0.075
IKTRDACPLDNQPWQLA [HRT1] | 3.02 ± 0.085 | 2.66 ± 0.063 | 2.27 ± 0.073 | 3.12 ± 0.049
IKWENAFVSVYSKNNPN [PRP8] | 2.11 ± 0.057 | 2.77 ± 0.05 | 3.07 ± 0.053 | 2.61 ± 0.031
ILCIFEGEKCHPQDFGN [SEC65] | 2.13 ± 0.059 | 2.39 ± 0.066 | 2.14 ± 0.087 | 2.44 ± 0.053
ILDFGPGGASGLGVLTH [FAS1] | 2.82 ± 0.082 | 2.74 ± 0.092 | – | 2.84 ± 0.2
ILDGQDVEENRSEFIES [YJR042W/NUP85] | 3.13 ± 0.09 | 3.2 ± 0.071 | 3.48 ± 0.072 | 3.27 ± 0.038
ILEDTATMSVFLQRIDF [RRI2] | 2.78 ± 0.059 | 2.53 ± 0.05 | 2.76 ± 0.056 | 2.59 ± 0.042
ILEDYCYFRDFEYCRID [ISW2] | 2.56 ± 0.13 | 1.35 ± 0.077 | 1.4 ± 0.11 | 1.35 ± 0.038
